The source of these data is US20250011747.

The subject of the data set is LMWK (natural substrate of KLK1).

Chain of Kb (KLK1 extracted from porcine pancreas) (chain, as listed by the source): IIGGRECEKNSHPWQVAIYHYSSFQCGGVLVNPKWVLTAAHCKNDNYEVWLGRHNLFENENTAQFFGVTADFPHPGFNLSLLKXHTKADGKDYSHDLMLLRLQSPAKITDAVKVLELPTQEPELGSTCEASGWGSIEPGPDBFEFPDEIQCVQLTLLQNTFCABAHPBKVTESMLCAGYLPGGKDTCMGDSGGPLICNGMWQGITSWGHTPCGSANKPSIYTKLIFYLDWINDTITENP
Chain of PEG-Kb (pancreatic kallikrein I for injection, PEG10K-modified Kb) (chain, as listed by the source): as above

Regarding “Kb (KLK1 extracted from porcine pancreas)”, the Bradykinin production µg/mg(enzyme), molar ratio of substrate to enzyme 1:1 (µg/mg(enzyme)) was determined as 20.9; the Bradykinin production µg/mg(enzyme), molar ratio of substrate to enzyme 5:1 (µg/mg(enzyme)) came to 90.8; the Bradykinin production µg/mg(enzyme), molar ratio of substrate to enzyme 10:1 (µg/mg(enzyme)) stood at 166; the Bradykinin production µg/mg(enzyme), molar ratio of substrate to enzyme 15:1 (µg/mg(enzyme)) was determined as 218. For the same substance, the Bradykinin production µg/mg(enzyme), molar ratio of substrate to enzyme 20:1 (µg/mg(enzyme)) is 288.

With “PEG-Kb (pancreatic kallikrein I for injection, PEG10K-modified Kb)”, the Bradykinin production µg/mg(enzyme), molar ratio of substrate to enzyme 1:1 (µg/mg(enzyme)) amounted to 11.3; the Bradykinin production µg/mg(enzyme), molar ratio of substrate to enzyme 5:1 (µg/mg(enzyme)) is 44.6; the Bradykinin production µg/mg(enzyme), molar ratio of substrate to enzyme 10:1 (µg/mg(enzyme)) is 80; the Bradykinin production µg/mg(enzyme), molar ratio of substrate to enzyme 15:1 (µg/mg(enzyme)) worked out at 104. Besides, the Bradykinin production µg/mg(enzyme), molar ratio of substrate to enzyme 20:1 (µg/mg(enzyme)) turned out to be 120.
